Reference: patent US20260055150A1 (REGENTS OF THE UNIVERSITY OF MICHIGAN, published 2026)
Where no end group is shown, it is not given here.

T1: claudin-1 on colonic patient-derived organoid cells (human, UniProt O95832 1-211)
T1 construct: whole, on cells; also called CLN1
T1 sequence (looked up): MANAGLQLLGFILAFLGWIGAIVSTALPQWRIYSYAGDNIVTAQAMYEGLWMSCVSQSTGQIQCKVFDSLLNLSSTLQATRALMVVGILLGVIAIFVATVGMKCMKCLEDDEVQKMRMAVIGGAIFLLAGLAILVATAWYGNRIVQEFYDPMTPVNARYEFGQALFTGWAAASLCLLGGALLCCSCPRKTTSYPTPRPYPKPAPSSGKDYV

B1: RTS*-Cy5.5 (Cy5.5-labeled peptide RTSPSSR) (peptide)
peptide: RTSPSSR
modifications: also: Cy5.5 label, attachment not given here
notes: also called peptide specific for claudin-1

Tests used:
[1] = molecular target: T2, epidermal growth factor receptor (EGFR) on patient-derived organoid cells (human, UniProt P00533 25-1210); assay: in vivo wide-field fluorescence endoscopy of PDO implanted in mouse colon, peptide given intravenously
T2 construct: whole, on cells
Experimental: Cultures were harvested from Matrigel in cold DPBS, triturated 30× with a 1 mL pipette tip, and centrifuged at 300 g for 3 min at 4° C. […] The colonoid fragments were further dissociated by 20× pipetting with a 1 mL pipette tip. […] Slow centrifugation at 100 g was performed to reduce the single cell content. The cell aggregates were resuspended in cold DPBS supplemented with 5% Matrigel and 10 µM Y27632. 1.8×10⁶ cell aggregates in 200 μL were transplanted per mouse as described previously. The implants were monitored over time using a rigid wide-field endoscope and a flexible fiber-coupled endomicroscope to localize the PDO and visualize EGFR expression with sub-cellular resolution.
Organoids grown in vitro (FIG. 17A) were implanted on day 7 post-DSS treatment. For implantation, in vitro grown PDOs were disrupted into smaller aggregates in 200 μL volume and were implanted intrarectally in anesthetized mice. The rectum was closed immediately using tissue glue. After several weeks to establish viability, the implanted PDOs were imaged using a rigid wide-field endoscope. The fluorescently-labeled peptide QRH*-Cy5 was administered intravenously at a dose of 300 μM in 200 μL of PBS.

[2] = molecular target: T1, claudin-1 on colonic patient-derived …; assay: ex vivo immunofluorescence staining of resected tissue
Text: After completion of in vivo imaging, the results were validated using IF.

| Binder | binding result [1] | binding result [2] |
| --- | --- | --- |
| QRHKPRE (also: Cy5 label, attachment not given here, also called Cy5QRH*-Cy5) [QRH*-Cy5 (QRHKPRE labeled with Cy5)] | binds | – |
| B1 | – | binds |
